Results reported in US20260240999A1, “METHODS FOR EX VIVO ENRICHMENT AND EXPANSION OF TUMOR REACTIVE T CELLS AND RELATED COMPOSITIONS THEREOF” (H. LEE MOFFITT CANCER CENTER AND RESEARCH INSTITUTE, INC., priority 2022, published 2026).

B1: IL-7: recombinant cytokine (protein, UniProt P13232 26-177, looked up)
Interleukin-7: DCDIEGKDGKQYESVLMVSIDQLLDSMKEIGSNCLNNEFNFFKRHICDANKEGMFLFRAARKLRQFLKMNSTGDFDLHLLKVSEGTTILLNCTGQVKGRKPAALGEAQPTKSLEENKSLKEQKKLNDLCFLKRLLQEIKTCWNKILMGTKEH
B2: IL-23: recombinant cytokine, P19 (SEQ ID NO: 1) and P40 (SEQ ID NO: 2) subunits (protein)
chain 1: RAVPGGSSPAWTQCQQLSQKLCTLAWSAHPLVGHMDLREEGDEETTNDVPHIQCGDGCDPQGLRDNSQFCLQRIHQGLIFYEKLLGSDIFTGEPSLLPDSPVGQLHASLLGLSQLLQPEGHHWETQQIPSLSPSQPWQRLLLRFKILRSLQAFVAVAARVFAHGAATLSP
chain 2: IWELKKDVYVVELDWYPDAPGEMVVLTCDTPEEDGITWTLDQSSEVLGSGKTLTIQVKEFGDAGQYTCHKGGEVLSHSLLLLHKKEDGIWSTDILKDQKEPKNKTFLRCEAKNYSGRFTCWWLTTISTDLTFSVKSSRGSSDPQGVTCGAATLSAERVRGDNKEYEYSVECQEDSACPAAEESLPIEVMVDAVHKLKYENYTSSFFIRDIIKPDPPKNLQLKPLKNSRQVEVSWEYPDTWSTPHSYFSLTFCVQVQGKSKREKKDRVFTDKTSATVICRKNASISVRAQDRYYSSSWSEWASVPCS
modifications: P19, UniProt Q9NPF7 20-189; P40, UniProt P29460 23-328
B3: IL-35: heterodimeric protein of p35 subunit from IL-12 and EBI3 (protein, UniProt P29459 23-219; Q14213 21-229, looked up)
Interleukin-12 subunit alpha: RNLPVATPDPGMFPCLHHSQNLLRAVSNMLQKARQTLEFYPCTSEEIDHEDITKDKTSTVEACLPLELTKNESCLNSRETSFITNGSCLASRKTSFMMALCLSSIYEDLKMYQVEFKTMNAKLLMDPKRQIFLDQNMLAVIDELMQALNFNSETVPQKSSLEEPDFYKTKIKLCILLHAFRIRAVTIDRVMSYLNAS
Interleukin-27 subunit beta: RKGPPAALTLPRVQCRASRYPIAVDCSWTLPPAPNSTSPVSFIATYRLGMAARGHSWPCLQQTPTSTSCTITDVQLFSMAPYVLNVTAVHPWGSSSSFVPFITEHIIKPDPPEGVRLSPLAERQLQVQWEPPGSWPFPEIFSLKYWIRYKRQGAARFHRVGPIEATSFILRAVRPRARYYVQVAAQDLTDYGELSDWSLPATATMSLGK
B4: IL-27: recombinant cytokine, heterodimer of IL27A (p28) and EBI3 (protein, UniProt Q8NEV9 29-243; Q14213 21-229, looked up)
Interleukin-27 subunit alpha: FPRPPGRPQLSLQELRREFTVSLHLARKLLSEVRGQAHRFAESHLPGVNLYLLPLGEQLPDVSLTFQAWRRLSDPERLCFISTTLQPFHALLGGLGTQGRWTNMERMQLWAMRLDLRDLQRHLRFQVLAAGFNLPEEEEEEEEEEEEERKGLLPGALGSALQGPAQVSWPQLLSTYRLLHSLELVLSRAVRELLLLSKAGHSVWPLGFPTLSPQP
Interleukin-27 subunit beta: B3 Interleukin-27 subunit beta

Tests used:
[1] = system: previously expanded human T cells from three healthy donors; test: Cytokines, modulators and agonist antibodies with IL-2 on T cell number and memory phenotype; assay type: cell-based; settings: for percent naïve and central memory T cells at Day 6: cytokine plus 300 IU/mL IL-2; for CD3+ cells/mL on Day 6: cytokine plus 300 IU/mL IL-2 vs IL-2 alone
Description: PBMC from three healthy donors were activated, expanded, and cryopreserved as described in Example 11. […] As previously described, stimulation of the healthy donor T cells prior to cryopreservation were carried out with anti-CD3 (OKT3) stimulation in order to mimic conditions present in the tumor microenvironment (TME).
Cells were next seeded into gas permeable 100M culture vessels and expanded for 7-14 days to achieve a large bank of T cells, and cryopreserved.
Cells were maintained in culture for 6 days, with a 50% medium exchange occurring at 3 days post culture initiation.
At the end of the culture period for all culture conditions, cells were assessed for cell count and sub-phenotypes of naïve and central memory T cells by flow cytometry by staining with CD45RA and CCR7 (naïve, CD45RA+ CCR7+; “central” memory, CD45RA-CCR7+).

[2] = system: previously expanded human T cells from three healthy donors; test: Effect of T cell adjuvants on T cell viability (total viable CD3+ cell count); assay type: cell-based; settings: 62.5 IU/ml-1000 IU/ml
Description: Cells were expanded from PBMC derived from Ficoll gradient separation from three healthy donor's apheresis material. […] Because the studies were carried out in healthy donors, stimulation of the T cells was carried out with anti-CD3 (OKT3) stimulation in order to mimic conditions present in the tumor microenvironment (TME).
Cells were next seeded into gas permeable 100M culture vessels and expanded for 7-14 days to achieve a large bank of T cells, and cryopreserved. […] Half of wells were additionally supplemented with 50 ng/mL OKT3, a human anti-CD3 monoclonal antibody. In total, 15 test adjuvant agents were tested for their impact on cell viability in the presence and absence of anti-CD3 activation (see Table E3). Cells were cultured for 6 days total, including a 50% medium exchange on culture day 3, and monitored for total viable CD3+ cell count.

[3] = at each of three tested concentrations (3.9, 250, and 1000 IU/mL)

Molecule	percent naïve and central memory T cells at Day 6 [1]	CD3+ cells/mL on Day 6 [1]	dose response of cell number [2]	CD3+ cell number [1, 3]	percent naïve and central memory T cells [1, 3]
B1	measured increase in the percent naïve and central memory T cells	increase in CD3+ cells/mL on Day 6	dose dependent response, wherein cell number increased with increasing concentration	–	–
B2	measured increase in the percent naïve and central memory T cells	increase in CD3+ cells/mL on Day 6	–	–	–
B3	measured increase in the percent naïve and central memory T cells	increase in CD3+ cells/mL on Day 6	–	–	–
B4	measured increase in the percent naïve and central memory T cells	increase in CD3+ cells/mL on Day 6	–	significant increase in CD3+ cell number	significant increase in CD3+ cell number as well as percent naïve and central memory T cells
